In the assay the target is T1, XPO1 (human, UniProt O14980 1-1071).
T1 construct: Endogenous protein pulled down from iPSN nuclear lysates with mouse anti-XPO1 (Santa Cruz sc-74454) coupled to Protein G beads; also called CRM1; XPO1/CRM1
The experiment in a line: co-immunoprecipitation with anti-XPO1 from iPSN nuclear lysates, western blot. As for the experimental part: Nuclei were isolated from iPSNs as described above. The resulting nuclei pellet was lysed in 1 mL IP buffer by vortexing for 30-45 seconds. Nuclei lysates were centrifuged for 10 minutes at 2500 rpm and 4° C. to remove debris. Following centrifugation, the supernatant was transferred to a clean Eppendorf tube. 25 μL of the supernatant was added to μL 2× Laemmli buffer (BioRad) and set aside as protein input and an additional 25 μL supernatant was set aside on ice as RNA input. The remainder of the lysate was split equally between IgG and XPO1 antibody conjugated bead tubes. Lysates were incubated with beads with end over end rotation for 2 hours at 4° C. The unbound supernatant was discarded and immunoprecipitated complexes were washed 3×5 minutes in 200 μL IP buffer with end over end rotation at 4° C. Bead-IP complexes were resuspended in 200 μL IP buffer. 100 μL of each bead-IP complex sample was set aside for RNA analysis. For the remaining 100 μL, the supernatant was discarded and 50 μL 1× Laemmli buffer was added to bead-IP complexes. All RNA samples (including input) were added to 500 μL RLT Buffer (QIAGEN) and RNA isolation, cDNA synthesis, and qRT-PCR were performed as described below. Protein samples were analyzed by western blot as described below. Equal volumes of each sample (10 μL) were loaded in acrylamide gels. […]
In general terms: A western blot detects proteins with antibodies after separation by electrophoresis.

Consider two molecules from patent US20230407298A1 (Johns Hopkins, published 2023).

T1 sequence (O14980 whole entry): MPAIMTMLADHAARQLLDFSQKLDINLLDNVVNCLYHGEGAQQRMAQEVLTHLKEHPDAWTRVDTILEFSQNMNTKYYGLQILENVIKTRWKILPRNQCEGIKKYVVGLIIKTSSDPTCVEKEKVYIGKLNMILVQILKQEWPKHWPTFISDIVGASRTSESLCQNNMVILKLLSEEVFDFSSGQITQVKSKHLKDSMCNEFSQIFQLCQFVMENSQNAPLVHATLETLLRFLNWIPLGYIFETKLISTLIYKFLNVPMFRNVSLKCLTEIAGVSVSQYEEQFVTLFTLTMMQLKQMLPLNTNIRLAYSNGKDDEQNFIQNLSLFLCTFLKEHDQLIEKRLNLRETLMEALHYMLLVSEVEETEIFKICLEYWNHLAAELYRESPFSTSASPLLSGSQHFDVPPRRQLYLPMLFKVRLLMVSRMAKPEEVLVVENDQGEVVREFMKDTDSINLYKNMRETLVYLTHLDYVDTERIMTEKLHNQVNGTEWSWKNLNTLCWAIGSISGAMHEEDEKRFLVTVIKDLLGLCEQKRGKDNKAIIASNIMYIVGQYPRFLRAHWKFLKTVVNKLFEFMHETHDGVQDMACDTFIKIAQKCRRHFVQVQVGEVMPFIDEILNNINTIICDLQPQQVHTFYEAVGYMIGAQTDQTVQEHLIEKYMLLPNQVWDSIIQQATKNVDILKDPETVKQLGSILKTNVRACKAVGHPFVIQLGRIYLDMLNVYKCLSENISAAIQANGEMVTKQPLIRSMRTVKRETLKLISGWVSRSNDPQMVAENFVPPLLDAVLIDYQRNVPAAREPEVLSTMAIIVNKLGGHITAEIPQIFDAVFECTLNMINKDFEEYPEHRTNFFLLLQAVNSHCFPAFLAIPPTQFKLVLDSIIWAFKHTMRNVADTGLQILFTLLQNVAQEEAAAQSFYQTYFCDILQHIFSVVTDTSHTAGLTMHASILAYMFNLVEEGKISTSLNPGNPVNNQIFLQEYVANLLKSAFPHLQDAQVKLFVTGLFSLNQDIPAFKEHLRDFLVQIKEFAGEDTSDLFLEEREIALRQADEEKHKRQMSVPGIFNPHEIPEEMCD

B1: LEMD2 (other, human, UniProt Q8NC56 2-503, looked up)
chain: AGLSDLELRRELQALGFQPGPITDTTRDVYRNKLRRLRGEARLRDEERLREEARPRGEERLREEARLREDAPLRARPAAASPRAEPWLSQPASGSAYATPGAYGDIRPSAASWVGSRGLAYPARPAQLRRRASVRGSSEEDEDARTPDRATQGPGLAARRWWAASPAPARLPSSLLGPDPRPGLRATRAGPAGAARARPEVGRRLERWLSRLLLWASLGLLLVFLGILWVKMGKPSAPQEAEDNMKLLPVDCERKTDEFCQAKQKAALLELLHELYNFLAIQAGNFECGNPENLKSKCIPVMEAQEYIANVTSSSSAKFEAALTWILSSNKDVGIWLKGEDQSELVTTVDKVVCLESAHPRMGVGCRLSRALLTAVTNVLIFFWCLAFLWGLLILLKYRWRKLEEEEQAMYEMVKKIIDVVQDHYVDWEQDMERYPYVGILHVRDSLIPPQSRRRMKRVWDRAVEFLASNESRIQTESHRVAGEDMLVWRWTKPSSFSDSER
notes: Absent from XPO1 immunoprecipitates by western blot; also called LEM2
On to B1, for which the binding result is on record as “no binding”.

B2: Lamin B1 (other, human, UniProt P20700 2-583, looked up)
chain: ATATPVPPRMGSRAGGPTTPLSPTRLSRLQEKEELRELNDRLAVYIDKVRSLETENSALQLQVTEREEVRGRELTGLKALYETELADARRALDDTARERAKLQIELGKCKAEHDQLLLNYAKKESDLNGAQIKLREYEAALNSKDAALATALGDKKSLEGDLEDLKDQIAQLEASLAAAKKQLADETLLKVDLENRCQSLTEDLEFRKSMYEEEINETRRKHETRLVEVDSGRQIEYEYKLAQALHEMREQHDAQVRLYKEELEQTYHAKLENARLSSEMNTSTVNSAREELMESRMRIESLSSQLSNLQKESRACLERIQELEDLLAKEKDNSRRMLTDKEREMAEIRDQMQQQLNDYEQLLDVKLALDMEISAYRKLLEGEEERLKLSPSPSSRVTVSRASSSRSVRTTRGKRKRVDVEESEASSSVSISHSASATGNVCIEEIDVDGKFIRLKNTSEQDQPMGGWEMIRKIGDTSVSYKYTSRYVLKAGQTVTIWAANAGVTASPPTDLIWKNQNSWGTGEDVKVILKNSQGEEVAQRSTVFKTTIPEEEEEEEEAAGVVVEEELFHQQGTPRASNRSC
notes: Absent from XPO1 immunoprecipitates by western blot
With B2, the binding result is given as “no binding”.
